From patent publication US20190083585 come the findings set out here.

For data set [1], the system named is fluorescently quenched α-gliadin hexapeptide analogue QXL520-PQPQLP-K(5-FAM)-NH2.
Data set [2] has as its system Suc-APQ-pNA.
Data set [3] concerns Suc-AQP-pNA.
Data set [4] relates to Suc-APR-pNA.
The subject of data set [5] is T1, immunodominant α9-gliadin peptide QLQPFPQPQLPY
T1 sequence: QLQPFPQPQLPY

The test system of data set [6] is Suc-APE-pNA.

Sequence of glutamine-specific endoprotease EP-B2 (native) (chain, as listed by the source): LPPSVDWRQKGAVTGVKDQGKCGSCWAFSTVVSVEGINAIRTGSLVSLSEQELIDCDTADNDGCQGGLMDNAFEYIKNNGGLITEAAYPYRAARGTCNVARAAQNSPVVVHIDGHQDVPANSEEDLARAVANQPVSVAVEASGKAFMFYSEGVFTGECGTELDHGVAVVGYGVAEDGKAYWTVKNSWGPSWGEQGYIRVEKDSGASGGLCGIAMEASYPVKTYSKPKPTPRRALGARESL

As for prolyl endopeptidase SC PEP (native), in data set [1], the “catalytic efficiency at pH 4” value was determined as 1.6 M^-1s^-1. Besides, the “fold lower level of activity than KumaMax” value in data set [1] is reported as “roughly 350-fold lower level of activity on this substrate than KumaMax”. For the same substance, the “catalytic activity at pH 4” value in data set [2], in data set [3], in data set [4] and in data set [6] was “did not exhibit any significant activity” each time. Moreover, in data set [3], the “catalytic efficiency at pH 7” value was 2390 M^-1s^-1. Moreover, the “degradation of the peptide after 50 minutes (LC-MS, pH 4, 37° C.)” value in data set [5] is listed as “no significant degradation of the peptide was observed”.
With “glutamine-specific endoprotease EP-B2 (native)”, the “activity at pH 4” value in data set [1] is “only very low levels of activity were detected”. For the same substance, the activity entry in data set [2], in data set [3], in data set [4] and in data set [6] was “no activity” each time.
